# In US20250109209A1 (ABSCI, published 2025):
# T1: Cyno TL1A (cyno, UniProt G7PRK8 72-251)
# T1 sequence: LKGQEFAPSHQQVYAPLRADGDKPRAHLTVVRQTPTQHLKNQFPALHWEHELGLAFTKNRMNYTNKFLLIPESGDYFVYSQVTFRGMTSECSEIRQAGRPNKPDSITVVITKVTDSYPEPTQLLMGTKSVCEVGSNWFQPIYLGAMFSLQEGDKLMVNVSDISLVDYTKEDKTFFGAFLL
# T2: human TL1A (human, UniProt O95150 72-251)
# T2 construct: Antigen in SPR and ELISA; Also used here for places that print only 'TL1A' and for endogenous TL1A in human whole blood; also called TNFSF15
# T2 sequence (looked up): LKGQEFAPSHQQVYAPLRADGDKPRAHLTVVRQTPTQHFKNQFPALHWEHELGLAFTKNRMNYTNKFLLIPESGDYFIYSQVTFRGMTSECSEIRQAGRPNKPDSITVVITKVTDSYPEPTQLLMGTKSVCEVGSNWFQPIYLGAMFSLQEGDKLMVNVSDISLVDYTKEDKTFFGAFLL
# T3: mouse TL1A (mouse, UniProt Q5UBV8 76-252, limits assumed)
# T3 sequence (looked up): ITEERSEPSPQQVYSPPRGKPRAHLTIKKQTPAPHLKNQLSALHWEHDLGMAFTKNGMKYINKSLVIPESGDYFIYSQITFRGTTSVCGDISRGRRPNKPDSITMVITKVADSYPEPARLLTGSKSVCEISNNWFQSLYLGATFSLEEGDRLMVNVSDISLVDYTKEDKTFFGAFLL
# How the values were obtained:
# FcRn [1] = target: T4, FcRn (UniProt P55899 24-297; P61769 21-119); test: SPR, mAb format, FcRn at pH 6.0, average
# T4 construct: also called neonatal receptor
# T4 sequence (P55899 24-297 limits assumed, chain 1 of 2): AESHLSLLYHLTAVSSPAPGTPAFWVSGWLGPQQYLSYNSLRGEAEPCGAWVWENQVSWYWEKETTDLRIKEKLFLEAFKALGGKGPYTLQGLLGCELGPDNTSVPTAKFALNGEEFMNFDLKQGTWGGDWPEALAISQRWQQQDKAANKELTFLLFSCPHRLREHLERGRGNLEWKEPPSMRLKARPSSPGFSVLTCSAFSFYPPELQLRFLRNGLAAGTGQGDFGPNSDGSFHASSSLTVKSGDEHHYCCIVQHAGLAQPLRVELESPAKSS
# T4 sequence (P61769 21-119 limits assumed, chain 2 of 2): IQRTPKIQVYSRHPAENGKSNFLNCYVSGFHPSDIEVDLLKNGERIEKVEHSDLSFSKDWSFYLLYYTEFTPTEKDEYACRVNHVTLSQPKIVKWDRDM
# Cyno TL1A [2] = target: T1, Cyno TL1A; test: SPR, representative sensorgram with Cyno TL1A
# FcRn [3] = target: T4, FcRn; test: SPR, representative sensorgram with FcRn, pH 6.0
# human TL1A [4] = target: T2, human TL1A; test: SPR, mAb format, average
# human TL1A [5] = target: T2, human TL1A; test: SPR, mAb format, average; remark: listed apart in the source
# mouse TL1A = target: T3, mouse TL1A; test: SPR, mAb format, average
# Cyno TL1A [6] = target: T1, Cyno TL1A; test: SPR, mAb format, average
# human TL1A [7] = target: T2, human TL1A; test: SPR, representative sensorgram with Human TL1A
# human TL1A [8] = target: T2, human TL1A; test: SPR, mAb format, average; remark: listed apart in the source
binder,measurement,setting,value
"Antibody 3 (mAb format) (antibody, human IgG1, kappa, N297A, also called high priority lead mAb) heavy: QVQLQESGPGLVRPSQTLSLTCTVSGFDIQDTYMHWVRQRPGRGLEWMGRIEPAGGHTKYNPSLKSRVTITRDTSKNQVSLRLSSVTAADTAVYYCVRSGGLPDAWGQGSLVTVSSASTKGPSVFPLAPSSKSTSGGTAALGCLVKDYFPEPVTVSWNSGALTSGVHTFPAVLQSSGLYSLSSVVTVPSSSLGTQTYICNVNHKPSNTKVDKKVEPKSCDKTHTCPPCPAPELLGGPSVFLFPPKPKDTLMISRTPEVTCVVVDVSHEDPEVKFNWYVDGVEVHNAKTKPREEQYASTYRVVSVLTVLHQDWLNGKEYKCKVSNKALPAPIEKTISKAKGQPREPQVYTLPPSRDELTKNQVSLTCLVKGFYPSDIAVEWESNGQPENNYKTTPPVLDSDGSFFLYSKLTVDKSRWQQGNVFSCSVLHEALHSHYTQKSLSLSPGK light: not shown",Kd,FcRn [1],16 nM
same,Kd,Cyno TL1A [2],< 0.031 nM
same,Kd,FcRn [3],14 nM
same,Kd,human TL1A [4],0.044 nM
same,Kd,human TL1A [5],0.044 nM
same,Kd,mouse TL1A,117 nM
same,Kd,Cyno TL1A [6],0.032 nM
same,Kd,human TL1A [7],< 0.044 nM
same,Kd,human TL1A [8],0.044 nM
